Measured values: a protein production outcome set (Wang et al. 2014)

Experiment: label from the status in PepcDB records

| Sequence | protein production |
| --- | --- |
| MEKQKEVQKEYEEYQYMLDTETWKKELSQFKLSSSEKISKNPKVSIIIANYNNAPYLKKMMDSLVQQTIGIEQLQVMFIDDCSTDHSLKVIEPYLERYPNIEIYQLLENTGGAHGPRNVGIVNARGEYSVFLDADDWYDLNALKYLSDLLDDSHDDFAVSGLIQSTDGHLMLKSKPYYVDGSFKNRSIQELPAEFYGWLGPQAIMLRTSLIHNNNLHFVNQRVADDVLFFYEAMRFSKTITQGERLTTYLNRDADNESLSKSINRTFMLSWLRALSYINQQFPDDLSKERMLARRLEWLIYDFCIRRNTGYPFSKRRLQDFKVQMDQYLGELNFDPSPYFRSDVRQIIWTFLQTNDIDGLYWFIQCQSIRWVLVNRFGYVSKTERSYYYPRLLKRFPAVRMNAYAEATQREGNTLSLNVYTHQKITGFEIKELKNPFETRQRLAFKKISETSYQVELPEKFSNKESRFTIVFDNYLEIGVKDFSKFFALEHHHHHH | failed |
| MNTRNFSLPQLQNLPIEEARIVADALAVHATSRQIDSAASKLAALAEAGLKGDRQAYAAYQQLLYVLSLSDDVATAQTRRWLARAIYRVEERFMPAADLSRALSEEDFQKRLEQEIAAQSRERHPMSQYVFSGSASRAQLQVFLRHQWFRTFRLYRDAADLLVNLTDVDEAAALARYLYGELGEEDEKGSHPRLLAKLLEAIGLEADFQAVSTMPEEIAYLNNRARAFRHAEVGWGLAVFYITELVVPGNHEKLYRALLQAGLSEDQAEYYKVHISLVPPRAKREWQLIARRIPDVQFQNAFLTSLSQHFRVERAYYDAIWEEMQSVK | not failed |
| MLQNRLNKARSHAEKHDVDAIVFFNMSNVRYLSGFTGSDGAVVLGRDASWFLTDSRYTTQASRQVVGLPTVEYRIKLDGITELVREQGFRRIGFESEHTAFAVYESLRQKLPKTELVPIGEELAQLRLIKDPSECELLSRVARLASEALLSILPLVKPGAVERELALELEFAMRRAGAENASFDFIVASGERGSLPHGRASDKALAAGELVTIDFGARYEGYCSDETVTVAVGVPDERQCQIYGIVKEAHDRAIAAVRPGAELREIDRIARGYIEEQGYGAFFGHGLGHGVGLDVHEKPVVSPRGEGVAAVGMVFTIEPGIYIPGWGGVRIEDTVIVTEDGCRPITMIPKELMIL | failed |
| MRITTLEELLEALDELFDDGSDLTRRGAQDPWERVFSQPGHPLASDLPDACLVDWTRQGLLPSGDGLTALDLGCGLGRNARWLARQGYAVTGLDLSPYAVGQARERTPGPDIRYLEGDVLRDPIPGGPFDVVYDSGCFHHLPPHRRLSYLHTLGQVLRPGGWFGLCTFAWGRMGSAKSDLELLRQGQLEGGVGYTLDDLREMFGGLDFVTGSLLSELEPASEPVFQMDFLQAALFRRPE | failed |
| MYLTCRFEESKSAEKAVVALEESTSGEPKTPTESHEKLRKVRSDQGSSTTSSNQENIGSSSVSFRNQVLQSTVTNQKQDSPIPVESNREKAASKEVEAGSQSTNEGIAGQSSSTEKPKEEESAKQRWSRSQREAALMKFRLKRKDRCFDKKHLKQIQDQTDSMEMYKNGLQVRYQSRKKLAEQRPRVKGQFVRTVNSDASTKS | failed |
| TQEYLAPKTTVRVGLVQWQMRSYKTLDDLFEQVEFFVDAVSDYKSDFVLFPEYFNAPLMSKYNDKGESQAIRGLAQYTEEIRDRFINLAISYNINIITGSMPLIKEDGLLYNAGFLCRRDGTYEMYEKLHVTPDEIKSWGLSGGKQLKTFDTDCAKIGILICYDVEFPELSRLMADQGMQILFVPFLTDTQNAYSRVRVCAQARAIENECFVVIAGSVGNLPRVHNMDIQYAQSGVFTPCDFAFPTDGKRAEATPNTEMILVSDVDLDLLNELHTYGSVRNLKDRRNDVYEVRFKKP | failed |
| MHSPHDPYVRVRDAREHNLKGVDVDVPRDVLAVFTGVSGSGKSSLAFGTVYAEAQRRYFESVAPYARRLIHQIGAPKVGGITGLPPAVSLQQRRATPTSRSSVGTVTNLSNSLRMLFSRAGTYPPGAERLDSDAFSPNTAAGACPECHGLGRVHRTTEELLVPDPSLSIRDGAIAAWPGAWQGKNLRDVLDALGYDVDRPWRELPAEAREWILFTDEQPVVTVHPVREAGRIQRPYQGTYMSARRYVLKTFADSKSATLRAKAERFLNSAPCPVCGGGRLRAEALAVTVGGRTVAELAALPLAELPRLLPTEGEAAKVLAEDLISRIAPVVELGLGYLSLDRPTPTLSAGELQRLRLATQLRSGLFGVVYVLDEPSAGLHPADTEALLTVLERLKAAGNSVFVVEHHLGVMRGADWIVDVGPLAGEHGGRVLYSGPVDGLARVAESATARHLFDRSPAPVREVRTPRGAVTIGPVTRHNLRGVTVRVPLGVLTAVTGVSGSGKSTLVGEITEDLPGVDRLVSVDQRPIGRTPRSNLATYTGLFDVVRKVFAATDRARERGFGVGRFSFNVPGGRCETCQGEGFVSVELLFLPSTYAPCPDCGGARYNPETLEVAYRGRNIAEVLDLTVEGAAQFFTDTPAVARSLAALLDVGLGYLRLGQPATELSGGEAQRIKLASELQRGRRGHTLYLLDEPTTGLHPADVEVLMRQLHGLVDAGHTVVVVEHDMSVVAGADHVIDLGPGGGDAGGRIVAEGTPARVAGAAGSATAPYLARALDGGERR | failed |
| VDDTVNVANEYSRYPLENYQLDFYVDNSWGWLPWNWSDGIGKQVMYGLYAITNFIWTISLYVSNATGYLVQEAYSLDFISATADSIGKNMQTLAGVTPSGLSTEGFYVGFLLLLILVLGVYVVYTGLIKRETTKAIHAIVNFVMVFILSASFIAYAPDYIKKIN | failed |
| MSPFLRIGLSNFDCGSCQSCQGEAVNPYCAVLVKEYVESENGQMYIQKKPTMYPPWDSTFDAHINKGRVMQIIVKGKNVDLISETTVELYSLAERCRKNNGKTEIWLELKPQGRMLMNARYFLEMSDTKDMNEFETEGFFALHQRRGAIKQAKVHHVKCHEFTATFFPQPTFCSVCHEFVWGLNKQGYQCRQCNAAIHKKCIDKVIAKCTGSAINSRETMFHKERFKIDMP | failed |
| EAGYEAGTEYLNLDEQPATILDAEHLGIETKEPITIIERLRTANHKPVVYCLDKIAKTYLTCTDYQQSSGSMLEAIKASTNHQIMHAEMDLEAISYEPHISEVLNASPHEGLMLLKVVHYDEKHQPILYSLNYIKSSLVKFTITKSE | not failed |
| MAFVVNGNEYNLAYYLTDEIYPKWATFIQSISLPQDEKASLFATNQEACRKDVERAFGVLQARFAIVKHPALIWDKIKIGNIMRACIILHNMIVEDERDGYTQYDVSDFAHPESASSSQVDFTYSTDMPSNLGNMMATRTRLRDRTKHEHLKADLVEHIWQKFGPIQA | failed |
| MSDHKAVHSVQAKAEGKTLVMERSFEAPRELVFKAFSGSVHLESWWGPKGWQTANSRFEFQPDGVWLYCMECRDQNQGEFYGRKSCGKAVFQEIAAPEKIVYTDMFTDEEGNVVPGMPEILNEVYFQERDVGTKLITRSHFSSPKELQQLLDKGMVEGFSSQLERLEDYLKAIR | failed |
| GAPLQRMLDEIAGHAACPVVVTNLAHRVLATAGERSAVDDVLRDWERIARQAGGSEGAGWVRAELGGRGERWGRIVLCGYRGDAATGRLLADRAAEALVLHRMLGGSAHTWEEQSAQGLLTDLVSGVVPARQLLPRARAAGLPVNRRTFVPLVVRDGEPPVLDRVLRMLGLPGLVAELADGATAVLLSLARDQDAEALSAHFATRLRTESGASGTVVAAADPRTAWDDVPAGLREAQHVADAVAENSAVLDLPAVVRLRDVHLRGLIRLLRDDPYVQSFAERELNGLLCGRDAESDLLPVLRTYLATGRNKSRTAQLHHVSRPALYRRLEAIQARLGVDLDDFEQAASVHIALLAHDAQQ | failed |
| ESKYIEYKKSRKGLSNDIWSTYSAFANTEGGTIYLGIEEKKIEDKKVFVSVGVEDPEKMIEDFWNALYGRSKVSQNILSNKDVKIVNIENKACIEIHVPEAPYSKKPIYVDNKKDLVYKRVDDADRIATEEEYKFMIVNSQDDIDTELLDNYDMSDLNHESIENYRKLLLKNTNDERYANMSQLDLMIDLGAYRKDRSSKDKQYKMTTACLLFFGKYNAISDRFPGFQLDYFKKTNYLDTDWKDRISSGDLGNEDLNVYSFFEKVLIKLTDNIEESFSLNDGLTRQNYARDLKVAIREALVNTLMHAYYDTKQSIKIVNCEDFIEFYNPGNMRINKEDFIHGGHSKDRNSILSTLFRRVGYSEKAGSGGPRIFDVVNRHKLKTPEIELTDMDTNVVLWKQDLMKEFEKYPELDKKVIKYIIDYGSISKGEALKMENMTEYQFRNILKKLKDDNLIKKEGEGPATKYVL | failed |
| MKFAVAVSGDRVNGPGESEEVQIYETDGGNVRLIEKYSNPALNATAARGVFMLKSALDHGANALVLSEIGSPGFNFIKNKMDVYIVPEMPVADALKLILEGKVSPATAPTHDHGHHH | not failed |
| MDARIVNALIGSVYETIRDVLGIEPKTGKPSTVSHIEIPHSLVTVIGITGGIEGSLIYSFSSETALKVVSAMMGGMEYNQLDELALSAIGELGNMTAGKLAMKLEHLGKHVDITPPTVVSGRDLKIKSFGVILKLPISVFSEEDFDLHLSVKSGG | not failed |
| MQHLDLQVVRKALKWSVGGERVWFCTVLTTYGSAPRAPGSLLAVNASGEWIGSLSGGCVEDDFLERVAAGGFPDPAVIVRYGEGDDPNSNIRLPCGGILDVLVENLAPDCDVQAHLRELESALLGQRRLLREVELGSGARSLRDDSSHGPRAERDGECVRLRVGAAQRLLLAGYSSVAHACAEFGKGLGFEVILCDPREEALRGVVLEGIEIRRELPSLFIADGGCHADTAVVALTHDPKIDDLAMLEAVRTEAFYIGVMGSRATSEKRFERLRRIGGLGDAELARIHAPIGLNLGSKTPAEIALAVLADILRIRNGIPRERL | failed |
| MRIGHGFDVHAFGGEGPIIIGGVRIPYEKGLLAHSDGDVALHALTDALLGAAALGDIGKLFPDTDPAFKGADSRELLREAWRRIQAKGYTLGNVDVTIIAQAPKMLPHIPQMRVFIAEDLGCHMDDVNVKATTTEKLGFTGRGEGIACEAVALLIKATK | not failed |
| MQTKKNEIWVGIFLLAALLAALFVCLKAANVTSIRTEPTYTLYATFDNIGGLKARSPVSIGGVVVGRVADITLDPKTYLPRVTLEIEQRYNHIPDTSSLSIRTSGLLGEQYLALNVGFEDPELGTAILKDGDTIQDTKSAMVLEDLIGQFLYGSKGDDNKNSGDAPAAAPGNNETTEPVGTTK | failed |
| YCKTIPMPDLAYSEISVIGKLIRALPEPCALHLANSSTVRYAQLFTVPPQVEICCNRGVNGIEGSLSTAIGYAAASSKLNFIIIGDLSFFYDMNALWNQNYGANIRILLLNNEGGEIFHTLPGMDKSSRSREFITAEHYTTAKGWAEERGFIYMKVTGEEELEEAMQPFTSPETRMQPMLLEVFTDKEKDTTLLREYYHGLKNKNE | failed |
| MPVKLAQALANPLFPALDSALRSGRHIGLDELDNHAFLMDFQEYLEEFYARYNVELIRAPEGFFYLRPRSTTLIPRSVLSELDMMVGKILCYLYLSPERLANEGIFTQQELYDELLTLADEAKLLKLVNNRSTGSDVDRQKLQEKVRSSLNRLRRLGMVWFMGHDSSKFRITESVFRFGADVRAGDDPREAQRRLIRDGEAMPIENHLQLNDETEENQPDSGEEE | failed |
| MAVAALLPQRPTSLEISMEGETFLWLIRHAPVDGVAGTIHAPDAPADLGDRAQLQALRQRLPRDSASYASPSRRTVETARALGLEPDLVGNFSEQDFGDWTGRRHDELAASGGEAYAQFWGDPAHARPPGGESFEDQVARVRHGLSRIGAGPATLVVHSGTIRAALCIALDLAPQSALRFVIDPLSLTRIDRLATGWRVVSVNQRVV | failed |
| MSIPSFLKLVEIQTKIASVFPFMLGTLFVVYQYDMFKPINTLIIFGSMLIFDLTTTAINNYMDYRKATDNHDYDYRTTSNVIGQEQIPVRTVIITIFLMFFIATGLGVWLVFRTDLLVLLIGFVCFCIGILYTFGPVPLSRMPLGEIFSGVTMGFGIFFLAVYVNAYDAGIANLLWQGEMVTIQFNLIEIIRIGVVSLPCIFTIANIMLANNLCDLDEDIRNHRYTLPYYIGRKMGVLLFNTLYYASFLAVVVSVAINFLHPIMLLSLITIYPVYRNLVKFNKEQVKSKTFVIGIRNFVLINATLTILMAVSVVLQQLT | failed |
